Target: the molecule itself
Test: crystal structure

B1: LIN-42 N-terminus residues 41-315 (domain or fragment, C. elegans)
chain: GAMDPEFNTWSSSSVEFLDDADDNRLLFTCTFTLPHGTVLSSATYADGFHEQYLTIGDNFLARLEPKGQSFILSAAAASVKQRIFARVTMPDGALRACELLCEFETDRAKITVLALRSAFSLQASHVSSNFHVFTFITKHSSTCALTHIDYASIPYLGLLPTDLIGKSLLAFVYSPDVHVVRQAHIDLHNSRGKIVKSIADLRLVAHNGSILRCQTEWSAYVNPWTRKMELVVARHRICSLPIGDSDVISSPPPGIQSNTLPPVMAKTFEDELRTIMNKPVP
- binding result: binds
